Experimental data: the DeepSol protein solubility set

Assay: soluble on expression in E. coli; label from the status in PepcDB or PDB records

Row | Sequence | soluble on expression in E. coli
1 | MNKHTTLPNLMQKIVSDEDLQSIIEAVGYHDTSRTFTVRTLVDFFLLAALHEWKSFRHGADVAKMYGLPTFHYSTVSKKAKEVPYEVMKRLFALVVSKCNRQTRRSLRFPKALRVVDSTTVTVGKNRLAWAPYHGERSGVKMHVAYSPEQQMPSDIVETVGLRHDGPVGEQLTDAQSVLVEDRAYFKIERIARFVEQKPPFVFG | not soluble
2 | MGSDKIHHHHHHMRVYFDNNATTRVDDRVLEEMIVFYREKYGNPNSAHGMGIEANLHMEKAREKVAKVLGVSPSEIFFTSCATESINWILKTVAETFEKRKRTIITTPIEHKAVLETMKYLSMKGFKVKYVPVDSRGVVKLEELEKLVDEDTFLVSIMAANNEVGTIQPVEDVTRIVKKKNKETLVHVDAVQTIGKIPFSLEKLEVDYASFSAHKFHGPKGVGITYIRKGVPIRPLIHGGGQERGLRSGTQNVPGIVGAARAMEIAVEELSEAAKHMEKLRSKLVSGLMNLGAHIITPLEISLPNTLSVSFPNIRGSTLQNLLSGYGIYVSTSSACTSKDERLSHVLDAMGVDRRIAQGAIRISLCKYNTEEEVDYFLKKIEEILSFLDLTGNNRR | not soluble
3 | MISSIRLDLFRTKVFVMPLKFPLSICLLGTFLVTSAQAQEAVKGVVELFTSQGCASCPPADEALRKMIQKGDVVGLSYHVDYWNYLGWTDSLASKENTERQYGYMRALGRNGVYTPQAILNGRDHVKGADVRGIYDRLDAFKREGQGLNVPVSSKFAGDEVEIDIGAGNGKADVVVAYFTREQTVDVQKGENQGKKMSYWHSVYDVQTVGMWDGSPMTVKLPASVVAKVKKGGCAVLLQTANASGDPAAIVGASILLGNETQLEHHHHHH | soluble
4 | GPLGSEEEQFALALKMSEQEAREVNNQEEKEEELLRKAIAESLNS | soluble
5 | MIMATLVITIGNDDCVNEGINIICNQCRPIYMNEDNKIIVNVVGEEKFGAGHNAEYITKQVDKHLGIIRDYIIEGLTDCYVEYDENGKEIFIPKTK | not soluble
6 | KAPFLILMHRNPDPDAMASAMALKTIFDKWGVSSEIAYGGKIGYDENKAMVNLLSIKLNPIDEINLSRYCSIAVVDSSSSKTLPIDVEDSKLSVIIDHHNDSDIVAKYMDILPEIGATATILTKYLLELEIAPNRDLATALYYAITSDTNYFKRKTSKKDFEAASYLQGLMDPKVLEMIENPDM | not soluble
7 | MGSDKIHHHHHHMLFFSFILLPELDVTMEDSGRRIKNEYRAWKERKMTKLTVGLALGSGAAKGWAHIGVLNGLAKLDIYPDKVAGCSVGALVGAAYANNHLGELETWVSGFSSWDVLGLMDLGWRKGGLISGEKVFDVLANRIGDIDIEQLNRPFAAVATDLYSGQEIWFKEGDLRHAVRASCSMPGFLPPVQQGHRWVVDGAVVNPVPVSLARSMGVDVVIAVDLNGHRRGQMHLIPEQVKSRKASKSEPIDEKRELESGFMDLWGKGKDYMNGLTDKFSLGSSKSHPGMLAVMSQSMDILEQRHKRSRLMGEPPDICIVPDVGDIGTMEFHRAKEAIKAGEQAVNDIKHLIEATLK | not soluble
8 | MGSDKIHHHHHHQSLKLSDNVVRIGVLTDLSGVYSELSGQGSVKAAQMAAADFMAMNPSFRGKVQVIGVDHQNKADVASNKAAEMIDRQKVDVLMDLPTSSAALAASEVARQKKVPVMVVTGGTTALTNEKCNKYTFHYAYDNYMLANGTGTAVTKRGGNSWYIIYPNYAFGQDLNRQMTAAIQENGGKLVAPSDATPFPNTDFSSYLLKAQGLKPKVFGTMQAGADLVNVVKQYNEFGLRQQGIGLGIGLLFETDVAALGQDAFAGALATVPWYWNMDQRARDWAAKFEKAFGKKPTWAQAGVYSATMTYLQAVARAKSDDGDAVVKALEGHRFSDFFARNAYVRPQDHRVMLDVYTVQVKPKAQAKENGDYFNKVATIPAARAFMPLSESKCRM | not soluble
9 | MKLNCCGVTQIADRVERLAHTHGKTWHTWHTDQDKTLPLGVPQLMMGFTADGQADPAMQQQRNQRLGIVKSAIKAQRADIQIPKADPGADGWQHGKTIQINDPTGHLHGPATSPTPQNTNSRSTQLEHHHHHH | not soluble
10 | MAHHHHHHMSEQNGAHSLQAELERMNAAIESYALQLDTINSAIESIDSENHSDDVSRQIFEYQTACERDPANISAEDALDTVTRLENTLKIVRRRNQLLAKENATQQKLLNDRSKFLLKETKNYENLVDRTGWHEQCSLNPEDEAQKASDIQEMSQLEVTVQRELRAAHTILKKKEALLRGLEEQLAKGTDLDAELNNAYNDIRVRKRECRELELRLEHLRKCSKKNDEALTVFENHGQSVSIEYMETDKDFLKDAVAQMKLVCRRQDNVIRAQLTRQQQLQTRLDTILRSLREMNLEKEYERNVSKSALVPSASREEPEDVSSILPKEETIPIHTYRLIFKNKELMNTNVVRKNMLVLEKEGVIQALEASLMKYANALNMTTRQLENMKINKGFEMTELMVELQQQHKNYLQQLEQIMQENNKLKKQLYRTPQLRTLIKNR | not soluble
11 | MSLGFIEEIKSALGNYVITEKKDLIPYMNDASYFTGEMPEAVVLPGSAEDVQTIMRLAYKYEKPVVVKGGGSSLTGSSILKESGIVMSMLRMNRILDINLNDKCVTVEPGLRLNDLQLYLDKYGHFYPPDPASSMAATVGGSISTNAGGLRGVAYGVTKDWILGLDVVLADGTMVKFGNKTLKRTLGYDLTSLMIGSEGTLGVITKAYLKIWPKPQKVARLVAFYQDIESAGRAVNELKVSTIPEMAEFLDKISLDSVPEAITYPPGTKYALIIDVSGPPELLGKKKTETEELLKRYAISTKSTTDPAEMEKIYRARKGLYASILKLRKSEKEYIVIGDIVVPVSELPTSLKEIEKKRDEDGVRAAIFGHIGDGNIHANIFADLGDNSAMDKVNRFMMDLAMVAVKHGGSVSAEHGIGIEKKQLLIEEMKYNNNLRTLDIMKAIKQVFDPKNILNRGNIFEEGHHHHHH | soluble
12 | MQPLLEAQKKLLPDLLDVMQKRYQILHSISLMAPIGRRALAASLGMSERVLRSETEFLKGQNLLSADVSGMRLTEEGQALLHTLNDLMREALGLKELEAALQEQLGIPRVIVVAGDSDRSPWVKKEMGRACVACMKELLEPGDIVAVAGGTTMAAVAEMMTPDSKLRDVLFVPARGGLGEDVENQANTICAKMAEKAMGRYRLLHVPDQLSDEAYASLVEEPAVKEVLELIQSCRMVVHGIGEAVTMAKRRKTPPVEMEKIIARHAVAEAFGYYFNEYGDVVHKVKTVGIQLEHLPHVEHVIAVAGGASKAKAIRAYMKRAPHSLLVTDEGAAKAFVGE | not soluble
13 | MALLEICCYSMECALTAQRNGADRIELCAAPKEGGLTPSFGVLRSVREHITIPVHPIIRPRGGDFYYTDGEFAAMLEDIRLVRELGFPGLVTGVLTVDGDVDMSRMEKIMAAAGPLAVTFHRAFDMCANPFNALKNLADAGVARVLTSGQKADAAQGLSIIMELIAQGDAPTIMAGAGVRANNLQNFLDAGVREVHSSAGVLLPSPMRYRNQGLSMSADIQADEYSRYRVEGAAVAEMKGIIVRHQAKLEHHHHHH | soluble
14 | MAHHHHHHMNEKGNFMKKAYKNNNIQLSENQINQRIKNVNLTKRLICYERYLKAIPKIERRNDLKNSWHPETPRYNKQISLSQWNKELKKWRKQIHAWGNISEEDHRYICKLSYTDKYKYLCNLKMPELSNLEIKNMKKENEEISHDILKHILLIQNKHNNPFDENDKIMYQPIFFLPENFSGTVVHNEFVIIKEQNMEKYLTLLKDKYKDKYNYCFKKYYELYLLNKDSDNKNVENSKNTIPKNGKNHIVIYLGKETKPLNYKNKEAQYEQKEKMEAYNFLCGSTKKYENHNKMNKRKKF | not soluble
15 | MSLNPLKCAVIGVGYLGKFHAEKYAALPGCELVAVVDADPVTAAEIGDRLGVRGLTDHRALLGKVDAVSVVVPTSLHHRVARDFLEAGAHVLVEKPITVTVEEADELIRIAKEKQRVLMVGHLERFNAAVLGLDLDHHKPLFIESHRLAPFKPRANDVSVVLDLMIHDIDIILDMVDSEVERIDAKGVAVLTGDIDIANARLQFKSGCVANVTASRVSLKVERKMRMFMPNAYVSVDFQNRVLARHRKGEGEMFPGVPEILSEESVFENGDALMEEIRHFLDCIREHREPLVSGAAGRRALATAIEITNLLKVQESRSEGHHHHHH | soluble
16 | MGSDKIHHHHHHLQVEKNVVISEFIVNMEDVLYHRDNTDVNIAEKVAEQTASLAHYGVAHYVLTNATNQQDSDNLHIVQTDLFEHYPKLTLYFYRILMAFDFLQAHPEIEKAALTDAGDVKMLNYPFDAVEDGILYMGDETIFIYDTSILIGYDGPQFIKDFIWENGHLPILNLGIMVGTRETLIEYLGIMVKLITEAELSLAQGNDEAFLGTYKMAISNYVAYYYFKDRLVHGNQVSTIFHGEQMVSGAWFKHK | not soluble
17 | MPSISKTKSGERYRAPTDQARKMDRKKENKRNKKDRQQIRQAMAKYCNLDETTSKLLALERQILGLDPQPFHIDVLRKKQKVLTDSINKRRMTLQQGKEDAELKKFNDKINAYQSDCQKLAVLAQQARLAREADPDMIPLPMGDVSTAGPERNNQLLAPAMIKRKVEFQLPPRPVRVAGQKPPGPPCGLAPNFSDSEEEEEEVHDDHYDDIDLAPVPIPEFDNPYQPIHRNYGPPSSYNSMPTRMPHHHHHHHPHASSHYNPMGFQNHHEEAVISSAPQINRSNEPAAPATLSAAPELRNLRRETVKLVPAQLLRRPGDNKTIVPRQAAPVQRRPEVQKQAKNTDEAYNDFMKELDGLI | not soluble
18 | MGSDKIHHHHHHMSNYRNPHQLIITADDYGMCPEVNRAIEECLAAGALRATCVMTNMPAYTDADRLSKDFPSASIGIHWTLTAGTPVAPLSEVPDLVAPNGQFWPAAEFRQRWLSRRISPTQVVIELQAQHARFVELIGQPAFWNTHQNVHVLPRLFPLVVDLAHRLGIPAMRSHRRITAPRHSSTLRYYLTHPIYWLKGQIIARWAAAAEKRGLRMPAGVVSTPGFGPGKVAIDQIIARIPWPRRLPAELVIHPATRVIPGLFGGLTESRLREFEVFRDPTLVERLAAMGVQPVGFEVL | not soluble
19 | MGHHHHHHGGHMSLITAEECRTYKEFVDLYQSYLYPLLGARLSRMYSPKNKVIIDMGTGPGYLSIQLAKRTNAHVHAVDINPAMHEIAQEEAKKSGVSSLISFDLEDVHHLSYADQYADFIVSYSCLHHWEDVVKGLKECYRVLAPGGKIVILDTFNPQGSHLEIMRKQIKEPEYFRFVREAFEESYSFEDIHQFVQDAGIPNYSLETFHFLPEDFIESLDELEDAPLWEQNDQSTDHEIESVTWMLTIEKEKEGALEGGS | soluble
20 | MIKEFCAENLTLLPTLDAGQVSRVELCDNLAVGGTTPSYGVIKEACQLLHDKKISVATMIRPRGGDFVYNDLELKAMEEDILKAVEAGSDALVLGLLTTENQLDTDAIEQLLPATQGLPLVFHMAFDHIPTDHQHQALDQLIDYGFVRVLTHGSPEATPITDNVEQLKSLVTYANKRIEIMIGGGVTAENCQNLSQLTGTAIVHGTKIILEHHHHHH | soluble
21 | MKIGIVGLGRVGSSTAFALLMKGFAREMVLIDVDKKRAEGDALDLIHGTPFTRRANIYAGDYADLKGSDVVIVAAGVPQKPGETRLQLLGRNARVMKEIARNVSKYAPDSIVIVVTNPVDVLTYFFLKESGMDPRKVFGSGTVLDTARLRTLIAQHCGFSPRSVHVYVIGEHGDSEVPVWSGAMIGGIPLQNMCQVCQKCDSKILENFAEKTKRAAYEIIERKGATHYAIALAVADIVESIFFDEKRVLTLSVYLEDYLGVKDLCISVPVTLGKHGVERILELNLNEEELEAFRKSASILKNAINEITAEENKHQNTSG | soluble
